In this experiment the target is soluble CLEC2D antigen, ecto-domain (Q72-V191, H176C) with C-term Histidine tag (human) (UniProt Q9UHP7). The experiment can be described thus: flow cytometry on CLEC2D-coated magnetic beads. (In general: A flow cytometer gives signals particle by particle.)

Among the data in patent publication US20240010733A1 are efficiency of conjugation (antigen-coated beads stained by the antibody) values, retold here.

Bounds are passed on as bounds.

UniProt Q9UHP7, sequence (Q9UHP7 72-191 H176C limits assumed): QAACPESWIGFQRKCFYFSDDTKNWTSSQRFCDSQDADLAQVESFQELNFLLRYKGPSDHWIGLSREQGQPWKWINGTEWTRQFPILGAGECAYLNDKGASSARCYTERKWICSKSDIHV

Turning to commercial P4500/anti-CLEC2D antibody, the efficiency of conjugation (antigen-coated beads stained by the antibody) was more than 90%.
